Experimental data published in article PMC10226595 (The Plant Cell, 2023).

B1: PHB-Delta, YFP-tagged (PHB with the START domain replaced by the 21-nt miR166 recognition site) (natural protein)
chain: MMMVHSMSRDMMNRESPDKGLDSGKYVRYTPEQVEALERVYTECPKPSSLRRQQLIRECPILSNIEPKQIKVWFQNRRCREKQRKEAARLQTVNRKLNAMNKLLMEENDRLQKQVSNLVYENGHMKHQLHTASGTTTDNSCESVVVSGQQHQQQNPNPQHQQRDAGMKPGPDVRQIAQETSGEVQYGGGRQPAVLRTFSQRLCRGFNDAVNGFVDDGWSPMGSDGAEDVTVMINLSPGKFGGSQYGNSFLPSFGSGVLCAKASMLLQNVPPAVLVRFLREHRSEWADYGVDAYAAASLRASPFAVPCARAGGFPSNQVILPLAQTVEHEESLEVVRLEGHAYSPEDMGLARDMYLLQLCSGVDENVVGGCAQLVFAPIDESFADDAPLLPSGFRIIPLEQKSTPNGASANRTLDLASALEGSTRQAGEADPNGCNFRSVLTIAFQFTFDNHSRDSVASMARQYVRSIVGSIQRVALAIAPRPGSNISPISVPTSPEALTLVRWISRSYSLHTGADLFGSDSQTSGDTLLHQLWNHSDAILCCSLKTNASPVFTFANQTGLDMLETTLVALQDIMLDKTLDEPGRKALCSEFPKIMQQGYAHLPAGVCASSMGRMVSYEQATVWKVLEDDESNHCLAFMFVNWSFV
B2: PHB-SDmut, YFP-tagged (PHB with mutated START domain) (natural protein)
chain: MMMVHSMSRDMMNRESPDKGLDSGKYVRYTPEQVEALERVYTECPKPSSLRRQQLIRECPILSNIEPKQIKVWFQNRRCREKQRKEAARLQTVNRKLNAMNKLLMEENDRLQKQVSNLVYENGHMKHQLHTASGTTTDNSCESVVVSGQQHQQQNPNPQHQQRDANNPAGLLSIAEEALAEFLSKATGTAVDWVQMIGMKPGPDSIGIVAISRNCSGIAARACGLVSLEPMKVAEILKDRPSWLRDCRSVDTLSVIPAGNGGTIELIYTQMYAPTTLAAAGAVVGAGYSTCLEDGSYVVCERSLTSATGGPTGPPSSNFVVAAGVPSGFLIRPCDGGGSILHIVDHVDLDAWSVPEVMRPLYESSKILAQKMTVAALRHVRQIAQETSGEVQYGGGRQPAVLRTFSQRLCRGFNDAVNGFVDDGWSPMGSDGAEDVTVMINLSPGKFGGSQYGNSFLPSFGSGVLCAKASMLLQNVPPAVLVRFLREHRSEWADYGVDAYAAASLRASPFAVPCARAGGFPSNQVILPLAQTVEHEESLEVVRLEGHAYSPEDMGLARDMYLLQLCSGVDENVVGGCAQLVFAPIDESFADDAPLLPSGFRIIPLEQKSTPNGASANRTLDLASALEGSTRQAGEADPNGCNFRSVLTIAFQFTFDNHSRDSVASMARQYVRSIVGSIQRVALAIAPRPGSNISPISVPTSPEALTLVRWISRSYSLHTGADLFGSDSQTSGDTLLHQLWNHSDAILCCSLKTNASPVFTFANQTGLDMLETTLVALQDIMLDKTLDEPGRKALCSEFPKIMQQGYAHLPAGVCASSMGRMVSYEQATVWKVLEDDESNHCLAFMFVNWSFV

Target: the molecule itself
Assay: single-molecule pull-down

Row | Protein | stoichiometry N
1 | B1 | 2
2 | B2 | 2
